Results taken from patent US20210246166A1 (Bayer, published 2021).
Bridge positions count the residues as written; N and C are the ends. Square brackets hold non-standard residues; d marks the D form. Ends that are not written are not given here. * marks the point of attachment. X5 = Tetrahydropyranyl‑4‑acetic acid, O=C(CC1CCOCC1)*; Oic = O=C(O)[C@@H]1C[C@@H]2CCCC[C@@H]2N1; Butanoyl(3,3-Me2) = CC(C)(C)CC(=O)*; Hyp = O=C(O)[C@@H]1C[C@@H](O)CN1; NMeI = CC[C@H](C)[C@H](NC)C(=O)O; aIle = CC[C@@H](C)[C@H](N)C(=O)O; tBuAla = CC(C)(C)C[C@H](N)C(=O)O; Pen = CC(C)(S)[C@H](N)C(=O)O; NMeC = CN[C@@H](CS)C(=O)O; Sar = CNCC(=O)O

Legend:
[1] = target: recombinant human MASP2 active protease (amino acids 297-686, C-terminal His Tag) (human, UniProt O00187 297-686); test: cell-based or functional assay
[2] = target: T1, recombinant human MASP1 active protease (amino acids 297-699, C-terminal His Tag) (human, UniProt P48740 297-699); test: cell-based or functional assay
T1 sequence: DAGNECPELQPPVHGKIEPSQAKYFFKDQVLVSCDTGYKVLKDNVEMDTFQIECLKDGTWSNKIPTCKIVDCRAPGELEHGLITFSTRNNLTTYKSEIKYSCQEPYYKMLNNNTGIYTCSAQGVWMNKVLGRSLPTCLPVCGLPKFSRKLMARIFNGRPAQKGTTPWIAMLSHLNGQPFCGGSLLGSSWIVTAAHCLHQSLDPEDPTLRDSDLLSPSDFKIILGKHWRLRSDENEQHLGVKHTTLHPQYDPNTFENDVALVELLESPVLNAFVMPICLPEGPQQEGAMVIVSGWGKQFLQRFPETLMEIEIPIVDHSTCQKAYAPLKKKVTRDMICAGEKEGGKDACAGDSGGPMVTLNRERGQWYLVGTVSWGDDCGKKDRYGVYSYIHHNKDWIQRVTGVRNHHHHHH

Chain of recombinant human MASP2 active protease (amino acids 297-686, C-terminal His Tag) (O00187 other isoform, or with tags, fused parts or gaps limits assumed): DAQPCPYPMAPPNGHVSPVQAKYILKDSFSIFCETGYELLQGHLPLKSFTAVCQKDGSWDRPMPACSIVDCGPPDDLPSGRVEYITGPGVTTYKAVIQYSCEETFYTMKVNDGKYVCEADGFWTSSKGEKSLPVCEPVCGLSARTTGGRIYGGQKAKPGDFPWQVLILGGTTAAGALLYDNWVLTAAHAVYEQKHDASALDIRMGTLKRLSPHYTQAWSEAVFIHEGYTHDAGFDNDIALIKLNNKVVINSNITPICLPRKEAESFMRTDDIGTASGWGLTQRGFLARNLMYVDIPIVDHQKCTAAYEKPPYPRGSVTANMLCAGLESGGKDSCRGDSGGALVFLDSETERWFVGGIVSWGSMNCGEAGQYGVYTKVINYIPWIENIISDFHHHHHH

| Binder | human MASP2 IC50 [1] | human MASP1 IC50 [2] |
| --- | --- | --- |
| X5-ICSRS[tBuAla]PPICIPD-NH2 (disulfide 2-10; SMILES CC[C@H](C)[C@H](NC(=O)CC1CCOCC1)C(=O)N[C@H]1CSSC[C@@H](C(=O)N[C@H](C(=O)N2CCC[C@H]2C(=O)N[C@@H](CC(=O)O)C(N)=O)[C@@H](C)CC)NC(=O)[C@H]([C@@H](C)CC)NC(=O)[C@@H]2CCCN2C(=O)[C@@H]2CCCN2C(=O)[C@H](CC(C)(C)C)NC(=O)[C@H](CO)NC(=O)[C@H](CCCNC(=N)N)NC(=O)[C@H](CO)NC1=O) [Example 342: (Tetrahydropyranyl-4-acetic acid)-IC+SRS-((tBu)A)-PPIC+IPD-NH2] | 0.017 µM | 0.026 µM |
| ICSRSLP[Oic]I[Pen]I-NH2 (disulfide 2-10; N-terminus assumed; SMILES CC[C@H](C)[C@H](N)C(=O)N[C@H]1CSSC(C)(C)[C@@H](C(=O)N[C@H](C(N)=O)[C@@H](C)CC)NC(=O)[C@H]([C@@H](C)CC)NC(=O)[C@@H]2C[C@@H]3CCCC[C@@H]3N2C(=O)[C@@H]2CCCN2C(=O)[C@H](CC(C)C)NC(=O)[C@H](CO)NC(=O)[C@H](CCCNC(=N)N)NC(=O)[C@H](CO)NC1=O) [Example 341: IC+SRSLP-(Oic)-I-(Pen)+I-NH2] | 0.43 µM | 0.026 µM |
| AICSRS[(2S)‑2‑Amino‑4,4,4‑trifluorobutanoic acid]PPI[NMeC]IPD-NH2 (disulfide 3-11) [Example 337: AIC+SRS-((2S)-2-Amino-4,4,4-trifluorobutanoic acid)-PPI-((N-Me)C)+IPD-NH2] | 2 µM | 0.025 µM |
| {Butanoyl(3,3-Me2)}-ICSRS[tBuAla]PPI[NMeC]I-NH2 (disulfide 2-10; SMILES CC[C@H](C)[C@H](NC(=O)[C@@H]1CSSC[C@H](NC(=O)[C@@H](NC(=O)CC(C)(C)C)[C@@H](C)CC)C(=O)N[C@@H](CO)C(=O)N[C@@H](CCCNC(=N)N)C(=O)N[C@@H](CO)C(=O)N[C@@H](CC(C)(C)C)C(=O)N2CCC[C@H]2C(=O)N2CCC[C@H]2C(=O)N[C@@H]([C@@H](C)CC)C(=O)N1C)C(N)=O) [Example 333: (tert-Butylacetic acid)-IC+SRS-((tBu)A)-PPI-((N-Me)C)+I-NH2] | 0.0084 µM | 0.025 µM |
| AICSRS[2‑Amino‑7‑(tert-butoxy)‑7‑oxoheptanoic acid]PPI[Pen]IPD-NH2 (disulfide 3-11) [Example 344: AIC+SRS-(2-Amino-7-(tert-butoxy)-7-oxoheptanoic acid)-PPI-(Pen)+IPD-NH2] | 0.051 µM | 0.027 µM |
| [Sar]ICSRSLPPICI[Sar]D-OH (disulfide 3-11; N-terminus assumed; SMILES CC[C@H](C)[C@H](NC(=O)CNC)C(=O)N[C@H]1CSSC[C@@H](C(=O)N[C@H](C(=O)N(C)CC(=O)N[C@@H](CC(=O)O)C(=O)O)[C@@H](C)CC)NC(=O)[C@H]([C@@H](C)CC)NC(=O)[C@@H]2CCCN2C(=O)[C@@H]2CCCN2C(=O)[C@H](CC(C)C)NC(=O)[C@H](CO)NC(=O)[C@H](CCCNC(=N)N)NC(=O)[C@H](CO)NC1=O) [Example 329: ((N-Me)G)-IC+SRSLPPIC+I-((N-Me)G)-D-OH] | 0.26 µM | 0.024 µM |
| [(2S,3S)‑2‑((3R)-3-Amino-2-oxopyrrolidin-1-yl)‑3‑methylpentanoic acid]CSRSLPPICIAD-OH (disulfide 2-10) | 0.36 µM | 0.026 µM |
| [tBuAla]ICSRSLP[Oic]I[Pen]IP-OH (disulfide 3-11; N-terminus assumed; SMILES CC[C@H](C)[C@H](NC(=O)[C@@H](N)CC(C)(C)C)C(=O)N[C@H]1CSSC(C)(C)[C@@H](C(=O)N[C@H](C(=O)N2CCC[C@H]2C(=O)O)[C@@H](C)CC)NC(=O)[C@H]([C@@H](C)CC)NC(=O)[C@@H]2C[C@@H]3CCCC[C@@H]3N2C(=O)[C@@H]2CCCN2C(=O)[C@H](CC(C)C)NC(=O)[C@H](CO)NC(=O)[C@H](CCCNC(=N)N)NC(=O)[C@H](CO)NC1=O) [Example 335: ((tBu)A)-IC+SRSLP-(Oic)-I-(Pen)+IP-OH] | 0.18 µM | 0.025 µM |
| ICSRSLP[Oic]I[Pen]IP-NH2 (disulfide 2-10; N-terminus assumed; SMILES CC[C@H](C)[C@H](N)C(=O)N[C@H]1CSSC(C)(C)[C@@H](C(=O)N[C@H](C(=O)N2CCC[C@H]2C(N)=O)[C@@H](C)CC)NC(=O)[C@H]([C@@H](C)CC)NC(=O)[C@@H]2C[C@@H]3CCCC[C@@H]3N2C(=O)[C@@H]2CCCN2C(=O)[C@H](CC(C)C)NC(=O)[C@H](CO)NC(=O)[C@H](CCCNC(=N)N)NC(=O)[C@H](CO)NC1=O) [Example 336: IC+SRSLP-(Oic)-I-(Pen)+IP-NH2] | 0.69 µM | 0.025 µM |
| ICSRS[tBuAla]PPI[Pen]I-NH2 (disulfide 2-10; N-terminus assumed; SMILES CC[C@H](C)[C@H](N)C(=O)N[C@H]1CSSC(C)(C)[C@@H](C(=O)N[C@H](C(N)=O)[C@@H](C)CC)NC(=O)[C@H]([C@@H](C)CC)NC(=O)[C@@H]2CCCN2C(=O)[C@@H]2CCCN2C(=O)[C@H](CC(C)(C)C)NC(=O)[C@H](CO)NC(=O)[C@H](CCCNC(=N)N)NC(=O)[C@H](CO)NC1=O) [Example 345: IC+SRS-((tBu)A)-PPI-(Pen)+I-NH2] | 0.39 µM | 0.027 µM |
| A[aIle]CSRSLPPICIPD-NH2 (disulfide 3-11; N-terminus assumed; SMILES CC[C@@H](C)[C@H](NC(=O)[C@H](C)N)C(=O)N[C@H]1CSSC[C@@H](C(=O)N[C@H](C(=O)N2CCC[C@H]2C(=O)N[C@@H](CC(=O)O)C(N)=O)[C@@H](C)CC)NC(=O)[C@H]([C@@H](C)CC)NC(=O)[C@@H]2CCCN2C(=O)[C@@H]2CCCN2C(=O)[C@H](CC(C)C)NC(=O)[C@H](CO)NC(=O)[C@H](CCCNC(=N)N)NC(=O)[C@H](CO)NC1=O) [Example 331: A-(allo-I)C+SRSLPPIC+IPD-NH2] | 0.61 µM | 0.024 µM |
| GICSRSLPPICI[Hyp]D-OH (disulfide 3-11; N-terminus assumed; SMILES CC[C@H](C)[C@H](NC(=O)CN)C(=O)N[C@H]1CSSC[C@@H](C(=O)N[C@H](C(=O)N2C[C@H](O)C[C@H]2C(=O)N[C@@H](CC(=O)O)C(=O)O)[C@@H](C)CC)NC(=O)[C@H]([C@@H](C)CC)NC(=O)[C@@H]2CCCN2C(=O)[C@@H]2CCCN2C(=O)[C@H](CC(C)C)NC(=O)[C@H](CO)NC(=O)[C@H](CCCNC(=N)N)NC(=O)[C@H](CO)NC1=O) [Example 348: GIC+SRSLPPIC+I-(Hyp)-D-OH] | 0.69 µM | 0.028 µM |
| AICSRSLP[3,3‑dimethyl‑1,3‑azasilolidine‑5‑carboxylic acid]ICIPD-NH2 (disulfide 3-11) [Example 326: AIC+SRSLP-(3,3-dimethyl-1,3-azasilolidine-5-carboxylic acid)-IC+IPD-NH2] | 0.71 µM | 0.023 µM |
| AICSRSLPP[aIle]CIPD-NH2 (disulfide 3-11; N-terminus assumed; SMILES CC[C@@H](C)[C@@H]1NC(=O)[C@@H]2CCCN2C(=O)[C@@H]2CCCN2C(=O)[C@H](CC(C)C)NC(=O)[C@H](CO)NC(=O)[C@H](CCCNC(=N)N)NC(=O)[C@H](CO)NC(=O)[C@@H](NC(=O)[C@@H](NC(=O)[C@H](C)N)[C@@H](C)CC)CSSC[C@@H](C(=O)N[C@H](C(=O)N2CCC[C@H]2C(=O)N[C@@H](CC(=O)O)C(N)=O)[C@@H](C)CC)NC1=O) [Example 346: AIC+SRSLPP-(allo-I)-C+IPD-NH2] | 0.19 µM | 0.027 µM |
| [Sar]ICSRSLPPICIPE-OH (disulfide 3-11; N-terminus assumed; SMILES CC[C@H](C)[C@H](NC(=O)CNC)C(=O)N[C@H]1CSSC[C@@H](C(=O)N[C@H](C(=O)N2CCC[C@H]2C(=O)N[C@@H](CCC(=O)O)C(=O)O)[C@@H](C)CC)NC(=O)[C@H]([C@@H](C)CC)NC(=O)[C@@H]2CCCN2C(=O)[C@@H]2CCCN2C(=O)[C@H](CC(C)C)NC(=O)[C@H](CO)NC(=O)[C@H](CCCNC(=N)N)NC(=O)[C@H](CO)NC1=O) [Example 339: ((N-Me)G)-IC+SRSLPPIC+IPE-OH] | 0.64 µM | 0.026 µM |
| [Sar][NMeI]CSRSLPPICIPD-NH2 (disulfide 3-11; N-terminus assumed; SMILES CC[C@H](C)[C@@H]1NC(=O)[C@@H]2CCCN2C(=O)[C@@H]2CCCN2C(=O)[C@H](CC(C)C)NC(=O)[C@H](CO)NC(=O)[C@H](CCCNC(=N)N)NC(=O)[C@H](CO)NC(=O)[C@@H](NC(=O)[C@H]([C@@H](C)CC)N(C)C(=O)CNC)CSSC[C@@H](C(=O)N[C@H](C(=O)N2CCC[C@H]2C(=O)N[C@@H](CC(=O)O)C(N)=O)[C@@H](C)CC)NC1=O) [Example 340: ((N-Me)G)-((N-Me)I)-C+SRSLPPIC+IPD-NH2] | 0.3 µM | 0.026 µM |
